This passage reports binding result, Kd and EC50 results from patent US20230012273A1 (Boehringer Ingelheim, published 2023).

Assay [1] has as its target T1, full-length human SIRPβL (NP_001129316.1) on cells (human, UniProt Q5TFQ8 30-398).
T1 construct: one molecule for U937 SIRPα-KO transfectants (NP_001129316.1) and Expi-CHO transfectants (Q5TFQ8); also called SIRPβ1v3; βL WT
Kind of assay: flow cytometry, U937 SIRPα-KO cells expressing full-length human SIRPβL. The method, then:
Antibody binding to cells expressing full-length human SIRPβ1 (NP_006056.2) and SIRPβL (NP_001129316.1) is evaluated by flow cytometry. SIRPβ1- or SIRPβL-expressing U937^{SIRPα KO} cells are blocked with donkey IgG and incubated on ice with increasing concentrations of antibodies for 60 minutes, washed and stained with AF647-conjugated donkey F(ab′)₂ anti-human IgG secondary reagent. Cells are washed, fixed, and analyzed by flow cytometry. Median fluorescent intensity is determined and used as a measure of antibody binding.

For assay [2], the target named is T2, human SIRPβ1 extracellular domain + His-tag (NP_006056.2) (human, UniProt O00241 30-371).
T2 construct: also called hSIRPβ1; HuSIRPβ1
T2 sequence (O00241 other isoform, or with tags, fused parts or gaps): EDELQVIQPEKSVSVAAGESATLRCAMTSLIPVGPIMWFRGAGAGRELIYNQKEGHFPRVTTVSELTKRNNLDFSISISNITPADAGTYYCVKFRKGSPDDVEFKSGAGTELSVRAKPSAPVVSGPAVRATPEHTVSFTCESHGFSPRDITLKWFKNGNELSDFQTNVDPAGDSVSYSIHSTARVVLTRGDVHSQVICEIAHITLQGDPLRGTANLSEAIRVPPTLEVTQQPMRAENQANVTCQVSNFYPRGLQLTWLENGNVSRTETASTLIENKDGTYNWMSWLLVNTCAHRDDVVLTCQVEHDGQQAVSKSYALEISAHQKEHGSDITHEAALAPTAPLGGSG
The assay can be described thus: SPR, Ab captured, ECD-His analyte. In outline:
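SPR; Ab capture surface, ethanolamine-deactivated (1M, 420 s, 10 μl/min). Analyte: SIRP ECD+His, 2-fold dilution series in 1×HBS-EP+. Inject 300 s @ 30 μl/min; dissoc. 600 s.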
In general terms: SPR reads the build-up and loss of mass on a sensor chip optically.

For assay [3], the target named is T3, full-length human SIRPγ (NP_061026.2) on cells (human, UniProt Q9P1W8 29-387).
T3 construct: on CHO and Expi-CHO cells; endogenous on primary human CD3+ T cells; also called γ WT
Kind of assay: flow cytometry, primary human CD3+ T cells; endogenous SIRPγ on primary human CD3+ T cells. As to the method: Antibody binding to primary human T cells expressing endogenous SIRPγ is evaluated by flow cytometry. Human peripheral blood mononuclear cells (PBMCs) are blocked with donkey IgG and incubated on ice with increasing concentrations of antibody for 60 minutes, washed and stained with AF647-conjugated donkey F(ab′)₂ anti-human IgG secondary reagent. […] Cells are washed, fixed, and analyzed by flow cytometry. Median fluorescent intensity of CD3+ gated population is determined and used as a measure of antibody binding.
Background: In flow cytometry, cells or beads pass a laser one at a time.
T3 sequence (Q9P1W8 29-387): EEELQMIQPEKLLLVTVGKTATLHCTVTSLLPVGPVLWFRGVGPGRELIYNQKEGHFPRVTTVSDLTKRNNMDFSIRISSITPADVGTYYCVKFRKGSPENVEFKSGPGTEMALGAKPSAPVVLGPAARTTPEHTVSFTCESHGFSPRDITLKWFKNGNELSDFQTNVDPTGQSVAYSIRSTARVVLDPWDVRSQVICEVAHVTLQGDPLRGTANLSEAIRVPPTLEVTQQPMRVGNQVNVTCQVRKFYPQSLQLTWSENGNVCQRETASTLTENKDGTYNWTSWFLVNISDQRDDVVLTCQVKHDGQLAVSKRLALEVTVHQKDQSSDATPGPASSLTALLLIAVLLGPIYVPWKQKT

For assay [4], the target named is T4, full-length human SIRPγ (NP_061026.2) on cells (human, UniProt Q9P1W8 29-387).
T4 construct: also called CHO-hSIRPγ; γ WT
The assay can be described thus: flow cytometry, Expi-CHO cells expressing full-length wild-type human SIRPγ. The method, then:
[…] These cells are blocked with donkey IgG and incubated on ice with increasing concentrations of antibodies for 60 minutes, washed and stained with AF647-conjugated donkey F(ab′)₂ anti-human IgG antibodies. Stained cells are washed, fixed, and analyzed by flow cytometry. Median fluorescent intensity is determined and used as a measure of antibody binding.
T4 sequence (Q9P1W8 29-387): as above

Assay [5] addresses T1, full-length human SIRPβL …. Kind of assay: flow cytometry, Expi-CHO cells expressing full-length wild-type human SIRPβL. The method, then: Expi-CHO parental cells are transduced with lentiviruses containing either full-length wild-type human SIRPβL (Q5TFQ8) or full-length human SIRPβL with a single amino acid point mutation (Table 62) and sorted to achieve matching expression levels. These cells are blocked with donkey IgG and incubated on ice with increasing concentrations of antibodies for 60 minutes, washed and stained with AF647-conjugated donkey F(ab′)₂ anti-human IgG antibodies. Stained cells are washed, fixed, and analyzed by flow cytometry. Median fluorescent intensity is determined and used as a measure of antibody binding.
A single amino acid substitution (H→D) introduced within the loop region maintained, strengthened, or facilitated antibody binding to these cells (FIG. 34B, Table 63).

Assay [6] has as its target T3, full-length human SIRPγ (NP_061026.2) …. The assay can be described thus: flow cytometry, primary human CD3+ T cells. In outline: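 PBMCs blocked with donkey IgG were incubated on ice for 60 min with increasing antibody concentrations, then detected with AF647 donkey F(ab′)₂ anti-human IgG. After fixation, median fluorescence intensity of the gated CD3+ population served as the binding measure.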

Assay [7] addresses T5, full-length human SIRPγ EN→DD on Expi-CHO cells (human, UniProt Q9P1W8 29-387).
T5 construct: the entry already carries the change (PENV to PDDV)
T5 chain: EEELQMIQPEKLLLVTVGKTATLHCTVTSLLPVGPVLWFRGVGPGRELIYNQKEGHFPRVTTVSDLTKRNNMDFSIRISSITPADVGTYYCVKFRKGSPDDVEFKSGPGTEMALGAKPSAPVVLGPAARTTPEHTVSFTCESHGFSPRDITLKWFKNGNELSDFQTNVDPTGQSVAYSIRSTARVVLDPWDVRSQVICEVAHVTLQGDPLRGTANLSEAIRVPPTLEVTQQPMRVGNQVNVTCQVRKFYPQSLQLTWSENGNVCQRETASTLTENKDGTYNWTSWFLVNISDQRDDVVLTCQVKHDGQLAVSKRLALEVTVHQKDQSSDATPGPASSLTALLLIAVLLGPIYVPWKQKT
The assay can be described thus: flow cytometry, Expi-CHO cells expressing full-length human SIRPγ EN→DD. The method, then:
Expi-CHO parental cells are transduced with lentiviruses containing either full-length wild-type human SIRPγ ([…]) or full-length human SIRPγ with amino acid point mutations (Table 64) and sorted to achieve matching expression levels. These cells are blocked with donkey IgG and incubated on ice with increasing concentrations of antibodies for 60 minutes, washed and stained with AF647-conjugated donkey F(ab′)₂ anti-human IgG antibodies. Stained cells are washed, fixed, and analyzed by flow cytometry. Median fluorescent intensity is determined and used as a measure of antibody binding.

The target of assay [8] is T4, full-length human SIRPγ (NP_061026.2) …. Kind of assay: flow cytometry, CHO cells.
The target of assay [9] is T6, full-length human SIRPβ1 D→H on Expi-CHO cells (human, UniProt O00241 30-398).
T6 construct: the entry already carries the change (PDDV to PDHV)
T6 sequence (O00241 30-398 D130H): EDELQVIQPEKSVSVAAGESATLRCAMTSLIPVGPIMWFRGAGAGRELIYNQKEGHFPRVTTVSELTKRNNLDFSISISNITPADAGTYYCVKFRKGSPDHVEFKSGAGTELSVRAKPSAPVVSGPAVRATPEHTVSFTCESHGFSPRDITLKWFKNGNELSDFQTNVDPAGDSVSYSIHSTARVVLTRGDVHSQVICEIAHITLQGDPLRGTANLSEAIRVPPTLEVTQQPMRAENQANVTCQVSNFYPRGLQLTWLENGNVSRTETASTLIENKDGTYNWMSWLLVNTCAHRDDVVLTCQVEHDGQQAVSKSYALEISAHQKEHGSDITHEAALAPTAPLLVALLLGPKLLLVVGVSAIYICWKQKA
The assay can be described thus: flow cytometry, Expi-CHO cells. As to the method: These cells are blocked with donkey IgG and incubated on ice with increasing concentrations of antibodies for 60 minutes, washed and stained with AF647-conjugated donkey F(ab′)₂ anti-human IgG antibodies. Stained cells are washed, fixed, and analyzed by flow cytometry. Median fluorescent intensity is determined and used as a measure of antibody binding.

The target of assay [10] is T7, recombinant human SIRPγ extracellular domain (ECD)/His protein (NP_061026.2) (human, UniProt Q9P1W8 29-360).
T7 construct: coated on ELISA plates; also called recombinant hSIRPγ; not shown: His-tag
T7 sequence (Q9P1W8 29-360): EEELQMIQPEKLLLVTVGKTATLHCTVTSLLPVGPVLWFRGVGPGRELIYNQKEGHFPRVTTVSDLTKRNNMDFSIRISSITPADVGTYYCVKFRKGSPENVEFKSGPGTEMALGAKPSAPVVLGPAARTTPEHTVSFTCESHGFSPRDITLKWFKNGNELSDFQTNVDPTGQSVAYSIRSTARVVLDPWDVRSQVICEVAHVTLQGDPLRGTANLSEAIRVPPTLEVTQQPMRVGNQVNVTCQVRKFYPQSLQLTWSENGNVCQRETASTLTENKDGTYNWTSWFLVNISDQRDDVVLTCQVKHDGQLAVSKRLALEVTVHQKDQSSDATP
Kind of assay: ELISA, coated SIRPγ ECD/His.

T1 sequence (Q5TFQ8 30-398): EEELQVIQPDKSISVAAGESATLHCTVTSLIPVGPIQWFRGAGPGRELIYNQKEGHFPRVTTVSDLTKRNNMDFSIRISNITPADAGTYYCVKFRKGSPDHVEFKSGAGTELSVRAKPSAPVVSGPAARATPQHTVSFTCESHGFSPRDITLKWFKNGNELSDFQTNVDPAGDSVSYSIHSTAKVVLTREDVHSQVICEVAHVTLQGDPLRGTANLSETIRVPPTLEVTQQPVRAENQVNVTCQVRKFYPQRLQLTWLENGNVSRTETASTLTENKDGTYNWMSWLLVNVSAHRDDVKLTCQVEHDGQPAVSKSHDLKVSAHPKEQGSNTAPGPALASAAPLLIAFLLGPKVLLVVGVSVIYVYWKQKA

B1: Antibody A (antibody, human IgG1, kappa, L234A L235A)
heavy: not shown
light: DIQMTQSPSSLSASVGDRVTITCRASQDINNYLAWFQQKPGKAPKSLIYTASSLHSGVPSKFSGSGSGTDFTLTISSLQPEDFATYYCQQYVSYPYTFGQGTKLEIKRTVAAPSVFIFPPSDEQLKSGTASVVCLLNNFYPREAKVQWKVDNALQSGNSQESVTEQDSKDSTYSLSSTLTLSKADYEKHKVYACEVTHQGLSSPVTKSFNRGEC
Take B1: the binding result in assay [1] is on record as “no binding (tested: about 200 nM)”.

B2: Antibody A (antibody, human IgG1, kappa, L234A L235A)
heavy: not shown
light: B1 light
For orientation: Kd means the constant that tells how readily two partners part at equilibrium. With B2, the Kd in assay [2] was determined as 78.2 nM. Besides, the binding result in [3] was “no binding”.

B3: Antibody A10 (antibody, human IgG1, kappa, L234A L235A)
heavy: not shown
light: B1 light
Turning to B3, the binding result in assay [4] and in [5] was “no binding (tested: about 67 nM)” in each case.

B4: Antibody A10 (antibody, human IgG1, kappa, L234A L235A)
heavy: not shown
light: B1 light
Consider B4, for which the binding result in assay [6] is “no binding”.

B5: Antibody E (antibody, human IgG1, kappa, L234A L235A)
heavy: not shown
light: DIVMTQSPLSLPVTPGEPASISCKSSQSLLYSNGYNYLDWYLQRPGQSPQLLIYLGSNRASGVPDRFSGSGSGTDFTLKISRVEAEDVGVFYCMQALQTPLTFGGGTKVEIKRTVAAPSVFIFPPSDEQLKSGTASVVCLLNNFYPREAKVQWKVDNALQSGNSQESVTEQDSKDSTYSLSSTLTLSKADYEKHKVYACEVTHQGLSSPVTKSFNRGEC
On to B5, for which the binding result in assay [7] was “no binding (tested: about 67 nM)”.

B6: Antibody E22 (antibody, human IgG1, kappa, L234A L235A, V domains shown)
VH: QVQLQESGPGLVKPSETLSLTCTVSGGSIRDYYWSWIRQPPGKGLEWIGFIYYNGRTFYQSSLKSRVTISLDTSKNQFSLKMTSVTAADTAVYYCARVRAYSGIGLDGTDVWGQGTTVTVSS
VL: DIVMTQSPLSLPVTPGEPASISCRSSQSLLYSTGYTYLDWYLQRPGQSPQLLIYGGSSRASGVPDRFSGSGSGTDFTLKISRVEAEDVGVFYCGQALQTPLTFGQGTKVEIKR
With B6, the binding result in [4] and in [7] was “no binding (tested: about 67 nM)” each time.

B7: Anti-SIRPα antibody KWAR23 (antibody, V domains shown)
VH: EVQLQQSGAELVKPGASVKLSCTASGFNIKDYYIHWVQQRTEQGLEWIGRIDPEDGETKYAPKFQDKATITADTSSNTAYLHLSSLTSEDTAVYYCARWGAYWGQGTLVTVSS
VL: QIVLTQSPAIMSASPGEKVTLTCSASSSVSSSYLYWYQQKPGSSPKLWIYSTSNLASGVPARFSGSGSGTSYSLTISSMEAEDAASYFCHQWSSYPRTFGAGTKLELK
Broadly, the EC50 is the concentration needed to bring the measured effect to its halfway point. With B7, the results for the EC50 in [8], in assay [9] and in assay [10] were 2.7 nM, 0.01 nM and 0.1 nM, respectively.
